Patent US20210115113A1 (CITY OF HOPE, published 2021)

Experiments:
humanized 72A1 (h72A1) = experiment: ELISA, mAb 10 µg/ml captured on soluble gp350, HRP secondary 1:2,000
[1] = target: murine 72A1 (m72A1), anti-EBV gp350 neutralizing antibody from hybridoma HB168; experiment: as above
[2] = target: EBV gp350 on EBV-eGFP virions (Epstein-Barr virus) (UniProt P03200); experiment: cell-based or functional assay
[3] = target: T1, EBV gp350 expressed on the surface of stably transfected CHO cells (Epstein-Barr virus, UniProt P03200 1-907); experiment: cross-competition on gp350-CHO cells (flow), unlabeled 500 µg/ml; competitor: biotinylated HB5
T1 construct: also called native gp350; gp350 expressing CHO cells
T1 sequence: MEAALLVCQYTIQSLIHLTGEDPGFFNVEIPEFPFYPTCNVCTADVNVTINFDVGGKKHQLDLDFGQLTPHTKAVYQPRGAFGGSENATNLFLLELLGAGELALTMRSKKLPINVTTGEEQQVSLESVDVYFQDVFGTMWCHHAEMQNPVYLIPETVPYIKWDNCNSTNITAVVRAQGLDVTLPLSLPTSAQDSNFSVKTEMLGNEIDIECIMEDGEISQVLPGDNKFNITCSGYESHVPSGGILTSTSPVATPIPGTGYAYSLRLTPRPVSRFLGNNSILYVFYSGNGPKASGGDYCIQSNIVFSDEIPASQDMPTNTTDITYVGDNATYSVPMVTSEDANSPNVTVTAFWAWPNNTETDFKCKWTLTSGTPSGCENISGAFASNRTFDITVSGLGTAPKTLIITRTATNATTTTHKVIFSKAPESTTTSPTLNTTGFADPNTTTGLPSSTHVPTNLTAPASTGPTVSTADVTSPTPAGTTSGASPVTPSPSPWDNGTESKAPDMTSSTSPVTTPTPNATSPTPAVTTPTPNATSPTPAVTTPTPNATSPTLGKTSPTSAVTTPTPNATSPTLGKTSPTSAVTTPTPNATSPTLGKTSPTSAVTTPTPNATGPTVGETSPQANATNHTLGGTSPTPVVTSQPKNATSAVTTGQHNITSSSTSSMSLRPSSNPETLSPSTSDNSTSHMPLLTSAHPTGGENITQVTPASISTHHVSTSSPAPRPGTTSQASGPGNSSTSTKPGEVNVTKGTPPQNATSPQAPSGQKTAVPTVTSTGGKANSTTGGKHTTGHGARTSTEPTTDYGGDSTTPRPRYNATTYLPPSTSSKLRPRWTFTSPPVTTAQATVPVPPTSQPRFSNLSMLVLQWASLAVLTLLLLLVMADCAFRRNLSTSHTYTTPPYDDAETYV

[4] = target: T1, EBV gp350 expressed on the surface of …; experiment: cell competition (flow), unlabeled 250 µg/ml; competitor: biotinylated m72A1 1 µg/ml
[5] = target: T1, EBV gp350 expressed on the surface of …; experiment: cross-competition on gp350-CHO cells (flow), unlabeled 500 µg/ml; competitor: biotinylated HB20
[6] = target: T1, EBV gp350 expressed on the surface of …; experiment: cross-competition on gp350-CHO cells (flow), unlabeled 500 µg/ml; competitor: biotinylated HB17
[7] = target: T1, EBV gp350 expressed on the surface of …; experiment: cross-competition on gp350-CHO cells (flow), unlabeled 500 µg/ml; competitor: biotinylated HB11
[8] = target: T1, EBV gp350 expressed on the surface of …; experiment: cross-competition on gp350-CHO cells (flow), unlabeled 500 µg/ml; competitor: biotinylated HB1
[9] = target: T1, EBV gp350 expressed on the surface of …; experiment: cell competition (flow), unlabeled 67.5 µg/ml; competitor: biotinylated m72A1 1 µg/ml
[10] = target: T1, EBV gp350 expressed on the surface of …; experiment: cell competition (flow), unlabeled 125 µg/ml; competitor: biotinylated m72A1 1 µg/ml
[11] = target: T2, EBV gp350 on EBV-eGFP virions (Epstein-Barr virus, UniProt P03200 1-907); experiment: cell-based or functional assay
T2 sequence: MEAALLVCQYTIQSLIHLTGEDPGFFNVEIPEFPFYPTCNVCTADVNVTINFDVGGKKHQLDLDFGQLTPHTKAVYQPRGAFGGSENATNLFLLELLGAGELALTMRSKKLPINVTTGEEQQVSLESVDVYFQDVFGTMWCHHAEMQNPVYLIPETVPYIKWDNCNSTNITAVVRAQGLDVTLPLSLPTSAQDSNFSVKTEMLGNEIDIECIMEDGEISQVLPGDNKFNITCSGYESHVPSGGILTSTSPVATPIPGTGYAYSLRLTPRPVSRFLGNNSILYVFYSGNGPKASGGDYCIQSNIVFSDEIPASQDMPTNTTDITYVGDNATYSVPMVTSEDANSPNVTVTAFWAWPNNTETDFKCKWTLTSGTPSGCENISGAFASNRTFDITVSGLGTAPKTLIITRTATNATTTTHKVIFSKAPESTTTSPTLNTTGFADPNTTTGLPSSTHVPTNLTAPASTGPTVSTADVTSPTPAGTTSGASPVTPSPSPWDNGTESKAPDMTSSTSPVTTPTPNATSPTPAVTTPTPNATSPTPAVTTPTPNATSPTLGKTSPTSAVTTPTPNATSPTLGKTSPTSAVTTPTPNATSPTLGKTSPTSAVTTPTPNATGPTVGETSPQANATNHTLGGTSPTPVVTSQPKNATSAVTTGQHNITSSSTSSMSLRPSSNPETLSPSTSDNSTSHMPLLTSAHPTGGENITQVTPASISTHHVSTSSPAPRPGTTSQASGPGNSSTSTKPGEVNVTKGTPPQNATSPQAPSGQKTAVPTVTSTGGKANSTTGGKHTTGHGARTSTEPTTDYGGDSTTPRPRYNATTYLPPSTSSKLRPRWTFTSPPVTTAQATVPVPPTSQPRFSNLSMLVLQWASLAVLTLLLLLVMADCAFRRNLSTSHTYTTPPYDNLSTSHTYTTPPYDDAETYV

[12] = target: T1, EBV gp350 expressed on the surface of …; experiment: cross-competition on gp350-CHO cells (flow), unlabeled 500 µg/ml; competitor: biotinylated 54A1
[13] = target: T1, EBV gp350 expressed on the surface of …; experiment: cross-competition on gp350-CHO cells (flow), unlabeled 500 µg/ml; competitor: biotinylated m72A1
[14] = target: T1, EBV gp350 expressed on the surface of …; experiment: cell competition (flow), unlabeled 500 µg/ml; competitor: biotinylated m72A1 1 µg/ml
[15] = target: T1, EBV gp350 expressed on the surface of …; experiment: cross-competition on gp350-CHO cells (flow), unlabeled 500 µg/ml; competitor: biotinylated h72A1

Chain of murine 72A1 (m72A1), anti-EBV gp350 neutralizing antibody from hybridoma HB168 (VH, as listed by the source limits assumed, chain 1 of 2): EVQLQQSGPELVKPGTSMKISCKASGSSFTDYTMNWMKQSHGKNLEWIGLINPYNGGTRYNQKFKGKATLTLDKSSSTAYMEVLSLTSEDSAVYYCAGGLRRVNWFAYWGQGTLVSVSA
Chain of murine 72A1 (m72A1), anti-EBV gp350 neutralizing antibody from hybridoma HB168 (VL, as listed by the source limits assumed, chain 2 of 2): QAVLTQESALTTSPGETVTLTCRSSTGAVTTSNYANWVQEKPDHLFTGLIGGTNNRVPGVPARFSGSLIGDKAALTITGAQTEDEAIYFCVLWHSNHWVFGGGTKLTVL
Chain of humanized 72A1 (h72A1) (VH, as listed by the source limits assumed, chain 1 of 2): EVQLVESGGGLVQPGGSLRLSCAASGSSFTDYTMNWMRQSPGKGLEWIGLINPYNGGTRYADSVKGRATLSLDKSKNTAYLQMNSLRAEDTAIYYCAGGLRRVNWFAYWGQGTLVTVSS
Chain of humanized 72A1 (h72A1) (VL, as listed by the source limits assumed, chain 2 of 2): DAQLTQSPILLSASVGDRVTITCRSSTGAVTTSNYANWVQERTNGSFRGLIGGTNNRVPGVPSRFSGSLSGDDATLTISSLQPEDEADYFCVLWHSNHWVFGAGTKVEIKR

## HRP-conjugated goat anti-human IgG (antibody)
Humanized 72A1 (h72A1)
  fold ELISA signal over the background: 2100 fold

## HRP-conjugated goat anti-mouse IgG (antibody)
[1]
  fold ELISA signal above the background (1× PBS): 28 fold
  fold ELISA signal as compared to goat anti-human IgG: 9 fold

## murine 72A1 (m72A1), anti-EBV gp350 neutralizing antibody from hybridoma HB168
[2]
  % blocking of EBV-eGFP infection of Raji cells at 12.5 µg/ml: 93%
  % neutralization of EBV-eGFP infection of Raji cells, 12.5-100 µg/ml: 35 to 80%

B1: HB20 (antibody, V domains shown)
VH: ELVKPGASVKLSCKASGYTFTSYWIQWVKQRPGQGLEWIGEINPTNGHTNYNEKFKTKATLTVDKSSSTAYMRLSSLTSEDSAVYYCARNLYYYGRPDYWGQGTSVTVSS
VL: SSLSASLGDRVTISCRASQDIGNYLNWYQQKPDGTVKLLIYYTSRLHSGVPSRFSGSGSGTDYSLTISNLEQEDIATYFCQQGNALPPTFGGGTKLEIKR
[3]
  % inhibition of biotinylated nAbs: 97%
[4]
  % inhibition of biotinylated nAbs: 91%
[5]
  % inhibition of biotinylated nAbs: 59%
[6]
  % inhibition of biotinylated nAbs: 13%
[7]
  % inhibition of biotinylated nAbs: 89%
[8]
  % inhibition of biotinylated nAbs: 88%
[9]
  % inhibition of biotinylated nAbs: 89%
[10]
  % inhibition of biotinylated nAbs: 87%
[11]
  % neutralization of EBV-eGFP infection of Raji cells at 100 µg/ml: 90%
[12]
  % inhibition of biotinylated nAbs: 0%
[13]
  % inhibition of biotinylated nAbs: 98%
[14]
  % inhibition of biotinylated nAbs: 96%
[15]
  % inhibition of biotinylated nAbs: 96%
